Assay results reported in paper PMC3368277.

Biological target: His-tagged recombinant C0–C1 domains of cardiac myosin binding protein-C (mouse)
Experiment: pull-down

His-tagged recombinant C0–C1 domains of cardiac myosin binding protein-C (mouse), sequence (O70468 whole entry, the tested form may be a part): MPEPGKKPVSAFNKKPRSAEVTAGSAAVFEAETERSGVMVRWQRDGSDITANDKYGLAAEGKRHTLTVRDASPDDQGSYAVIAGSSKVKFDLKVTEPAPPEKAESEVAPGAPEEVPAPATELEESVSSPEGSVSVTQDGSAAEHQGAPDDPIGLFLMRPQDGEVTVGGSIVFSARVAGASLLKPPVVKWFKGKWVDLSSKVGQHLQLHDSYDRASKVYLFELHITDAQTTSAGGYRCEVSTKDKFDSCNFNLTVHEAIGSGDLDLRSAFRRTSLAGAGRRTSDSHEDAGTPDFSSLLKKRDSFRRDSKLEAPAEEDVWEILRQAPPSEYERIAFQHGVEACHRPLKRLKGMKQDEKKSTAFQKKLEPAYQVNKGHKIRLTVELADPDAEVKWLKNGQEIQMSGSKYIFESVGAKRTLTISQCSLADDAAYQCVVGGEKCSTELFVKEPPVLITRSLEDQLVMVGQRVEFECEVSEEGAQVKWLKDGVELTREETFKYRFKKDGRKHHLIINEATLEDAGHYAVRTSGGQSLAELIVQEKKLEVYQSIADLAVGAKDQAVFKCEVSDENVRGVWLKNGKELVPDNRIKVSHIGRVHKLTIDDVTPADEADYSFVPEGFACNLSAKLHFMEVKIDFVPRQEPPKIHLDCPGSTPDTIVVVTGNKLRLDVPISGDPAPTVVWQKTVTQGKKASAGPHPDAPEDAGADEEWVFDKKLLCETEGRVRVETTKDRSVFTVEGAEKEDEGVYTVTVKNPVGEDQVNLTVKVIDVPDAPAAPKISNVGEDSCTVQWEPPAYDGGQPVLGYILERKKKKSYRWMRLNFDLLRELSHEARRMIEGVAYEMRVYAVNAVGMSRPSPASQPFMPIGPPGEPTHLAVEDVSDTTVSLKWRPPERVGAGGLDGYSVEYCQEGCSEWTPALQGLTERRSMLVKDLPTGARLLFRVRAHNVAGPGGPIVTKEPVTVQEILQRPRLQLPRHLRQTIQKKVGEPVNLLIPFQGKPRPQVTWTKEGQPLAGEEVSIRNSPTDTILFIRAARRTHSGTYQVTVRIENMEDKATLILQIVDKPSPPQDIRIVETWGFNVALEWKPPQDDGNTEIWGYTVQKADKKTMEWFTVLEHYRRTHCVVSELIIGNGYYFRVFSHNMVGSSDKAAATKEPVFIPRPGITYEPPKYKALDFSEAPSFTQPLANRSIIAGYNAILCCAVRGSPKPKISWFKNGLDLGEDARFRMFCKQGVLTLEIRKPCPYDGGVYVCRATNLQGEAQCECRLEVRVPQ

For “sarcomeric actin (from UniProt P68033 1-377) (natural protein)”, the reduction of binding against C0–C2 (quantified blot) was 50%.
